The values that follow are results of earlier work, collected in article PMC4716630.

What is called Kd is the equilibrium constant for the complex coming apart.

The target in the series is hMSH2 (Homo sapiens) (UniProt P43246).
Sequence of hMSH2 (Homo sapiens) (P43246 2-934): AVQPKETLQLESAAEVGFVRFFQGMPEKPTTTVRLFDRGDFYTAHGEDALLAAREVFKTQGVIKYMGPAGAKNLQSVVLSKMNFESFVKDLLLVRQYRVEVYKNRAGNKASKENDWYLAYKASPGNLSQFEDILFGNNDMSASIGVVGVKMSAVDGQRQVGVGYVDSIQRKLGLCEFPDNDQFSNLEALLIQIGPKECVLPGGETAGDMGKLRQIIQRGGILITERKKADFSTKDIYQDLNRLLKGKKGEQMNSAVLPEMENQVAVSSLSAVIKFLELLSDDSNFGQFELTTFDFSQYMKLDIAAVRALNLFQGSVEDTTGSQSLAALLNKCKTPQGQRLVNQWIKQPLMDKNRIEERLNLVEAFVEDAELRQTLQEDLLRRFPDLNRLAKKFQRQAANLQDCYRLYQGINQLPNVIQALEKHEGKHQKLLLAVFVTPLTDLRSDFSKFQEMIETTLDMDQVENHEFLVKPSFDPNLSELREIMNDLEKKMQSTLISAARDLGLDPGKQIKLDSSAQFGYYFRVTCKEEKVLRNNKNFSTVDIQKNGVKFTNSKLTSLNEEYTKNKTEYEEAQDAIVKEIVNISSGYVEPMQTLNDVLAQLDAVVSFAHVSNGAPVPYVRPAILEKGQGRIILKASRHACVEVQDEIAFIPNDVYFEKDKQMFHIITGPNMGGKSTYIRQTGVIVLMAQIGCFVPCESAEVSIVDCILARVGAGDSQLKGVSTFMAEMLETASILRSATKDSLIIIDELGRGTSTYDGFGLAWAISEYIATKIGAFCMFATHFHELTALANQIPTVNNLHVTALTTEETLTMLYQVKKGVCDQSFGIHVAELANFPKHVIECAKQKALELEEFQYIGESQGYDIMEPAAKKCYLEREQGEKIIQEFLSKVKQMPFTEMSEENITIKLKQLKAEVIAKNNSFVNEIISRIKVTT

Sequence of NKG2D (P26718 whole entry): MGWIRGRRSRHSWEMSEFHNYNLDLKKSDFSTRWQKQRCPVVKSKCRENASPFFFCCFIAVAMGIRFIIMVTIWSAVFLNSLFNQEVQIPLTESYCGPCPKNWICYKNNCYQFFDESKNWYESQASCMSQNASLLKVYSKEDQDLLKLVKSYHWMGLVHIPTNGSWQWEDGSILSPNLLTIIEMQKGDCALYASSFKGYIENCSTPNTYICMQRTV

As to NKG2D (from UniProt P26718), the Kd is 132 nM.
